From patent publication US20200087364A1 (IMMATICS BIOTECHNOLOGIES, published 2020)

What follows are binders tested against T1, HLA-A*01:01 (human) (assay: UV-ligand exchange, anti-b2m ELISA).
T1 construct: MHC class I monomer first loaded with a UV-sensitive peptide (not identified) that is cleaved by UV irradiation and exchanged for the tested peptide; captured on streptavidin plates, detected with anti-β2m; also called peptide-receptive MHC molecules
Outline: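 Peptide–MHC complexes made by UV-ligand exchange of a UV-cleavable peptide; exchange yield measured by ELISA on streptavidin-coated plates, samples diluted 100-fold, 1 h 37 °C. Detection with 2 ug/ml HRP anti-β2m, TMB, A450; refolded HLA-A*02:01/MLA-001 monomer standards 15-500 ng/ml.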

| peptide exchange yield | Binder |
| --- | --- |
| > 75% | LSDPQAELQFY |
| > 75% | YLYQAPGSLALY |
| > 75% | NTDSMTLNNTAY |
| 20 to 50% | KSFETTVRY |
| 50 to 75% | TLEDLDNLYNY |
| 20 to 50% | PPEANSLQGALY |
| 20 to 50% | KTLQKPVLPLY |
| 10 to 20% | TEEKFVSY |
| 20 to 50% | QALQDKLQTFY |
| 20 to 50% | HMLAAMAY |
| 20 to 50% | VTDGINPLI |
| 20 to 50% | STSRLTLFS |
| 50 to 75% | ESQTCASDY |
| > 75% | FTESNQYNIY |
| 20 to 50% | FSENLIYTYI |
| > 75% | YADLLIYTY |
| 50 to 75% | ATNIQLNIDTY |
| 20 to 50% | EVDSVALSL |
| 20 to 50% | ESMDIFPLGW |
| 50 to 75% | SMDPVTGYQY |
| 20 to 50% | LLDEDNNIKL |
| 50 to 75% | VSDHLQAGMLGQY |
| > 75% | FTDPHIITF |
| 50 to 75% | VSINPNSGDIY |

| peptide exchange yield | Binder |
| --- | --- |
| 20 to 50% | YPVVVAESMY |
| 50 to 75% | PANYLGKMTY |
| 50 to 75% | EGELSEGEHWY |
| 20 to 50% | DGIADASNLSYY |
| > 75% | VLDPMLDFY |
| 50 to 75% | VTDGTHTDFY |
| 20 to 50% | RLNGSVASY |
| 20 to 50% | LQKPVLPLY |
| 50 to 75% | PSSMPECLSYY |
| 50 to 75% | IMLSVDQHLY |
| > 75% | QTYMDGLLHY |
| 20 to 50% | VAGLEAGVLY |
| 10 to 20% | ELAAGQVVY |
| 50 to 75% | GTDKQNSTLRY |
| 50 to 75% | SSWSAGENDSY |
| 50 to 75% | GQRLDEAMISY |
| > 75% | YTSHEDIGY |
| > 75% | TSDVTGSLTY |
| 50 to 75% | EVDRNLIQY |
| 20 to 50% | FGTTPAAEYF |
| 20 to 50% | AVNALQSVY |
| 50 to 75% | LTDPQVSYV |
| 10 to 20% | HLLSVSLYY |
| 20 to 50% | RTGIFPYRF |

| peptide exchange yield | Binder |
| --- | --- |
| 20 to 50% | KFDVINHYF |
| 50 to 75% | VLKIELETY |
| 20 to 50% | EIIRYIFAY |
| 50 to 75% | SVDSNLVAY |
| 50 to 75% | YMTSMALNY |
| 50 to 75% | DTDDRELRY |
| 20 to 50% | TVTDGTHTDFY |
| 50 to 75% | RLDEAMISY |
| 50 to 75% | MMEMEGMY |
| > 75% | VLDFAPPGASAY |
| 20 to 50% | SADHPGLTF |
| > 75% | NTMDAVPRIDHY |
| 50 to 75% | GFGGLSSQGVYY |
| 20 to 50% | EDLLEVLDMY |
| 50 to 75% | FYLSTPENYHY |
| 20 to 50% | YSPDSFNVSW |
| 20 to 50% | DSTDGCLLSF |
| 20 to 50% | GQFTGTAGACRY |
| 20 to 50% | YTCEECGQAF |
| 20 to 50% | VTTDKPRAY |
| > 75% | FSELNPLALY |
| > 75% | PSSMPECLSY |
| 10 to 20% | YFGNYFTYY |
| 20 to 50% | KAFQELGVRY |
